Results on 2 molecules are retold here after paper PMC5562331, “The transcriptional regulator SsrB is involved in a molecular switch controlling virulence lifestyles of Salmonella”.

For this data set, the target named is 6H-SsrBc (Salmonella enterica serovar Typhimurium, UniProt Q7CQM5 138-212). As to the kind of experiment: EMSA; 0-2 uM protein. To be noted: protein: recombinant; 5' overhang 4 nt at both ends.
Sequence of 6H-SsrBc (Q7CQM5 138-212): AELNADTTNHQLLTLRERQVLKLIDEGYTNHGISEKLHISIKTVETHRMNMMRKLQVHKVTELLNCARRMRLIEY

B1: hilA -35+6 (dsDNA)
DNA 1: GATCCGCATTTACACCCCAAAAAAATGCAGTAAGATAGCTACAAA
DNA 2: AGCTTTTGTAGCTATCTTACTGCATTTTTTTGGGGTGTAAATGCG
In the case of B1, the binding result is listed as “no binding”.

B2: hilD -37+6 (dsDNA)
DNA 1: GATCCGCATTTACAACTCAGATTTTTTCAGTAGGATACCAGTAAGGA
DNA 2: AGCTTCCTTACTGGTATCCTACTGAAAAAATCTGAGTTGTAAATGCG
Consider B2, for which the binding result is “binds”.
